Measurements as given in patent US20180099015A1 (ADCURE BIOTECHNOLOGIES, published 2018).

How the values were obtained:
[1] = target: blood coagulation factor X (UniProt P00742); test: FX binding to immobilised virus (2900 RU); method not given, SPR (Biacore) named for FIG. 14B
[2] = target: T1, sCAR (UniProt P78310 20-237); test: not stated; row marked with an asterisk that has no footnote
T1 construct: also called soluble coxsackievirus and Ad receptor (CAR)
T1 sequence: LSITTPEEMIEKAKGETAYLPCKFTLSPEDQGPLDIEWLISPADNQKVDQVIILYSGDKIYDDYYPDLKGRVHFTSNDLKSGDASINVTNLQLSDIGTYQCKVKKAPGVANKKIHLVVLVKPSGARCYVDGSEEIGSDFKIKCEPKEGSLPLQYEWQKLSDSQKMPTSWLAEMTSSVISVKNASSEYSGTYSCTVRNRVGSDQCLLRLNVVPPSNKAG

Sequence of blood coagulation factor X (P00742 41-488 limits assumed): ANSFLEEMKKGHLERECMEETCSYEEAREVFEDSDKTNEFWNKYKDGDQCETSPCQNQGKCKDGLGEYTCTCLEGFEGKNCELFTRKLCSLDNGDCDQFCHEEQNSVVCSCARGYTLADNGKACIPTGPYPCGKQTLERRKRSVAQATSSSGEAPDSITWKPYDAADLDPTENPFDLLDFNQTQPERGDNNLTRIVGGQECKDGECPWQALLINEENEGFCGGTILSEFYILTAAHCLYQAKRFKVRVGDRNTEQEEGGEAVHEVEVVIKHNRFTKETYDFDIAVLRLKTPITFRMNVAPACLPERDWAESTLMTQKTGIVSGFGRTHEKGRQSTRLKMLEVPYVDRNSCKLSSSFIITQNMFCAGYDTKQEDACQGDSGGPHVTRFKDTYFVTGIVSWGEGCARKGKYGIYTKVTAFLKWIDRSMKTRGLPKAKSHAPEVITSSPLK

For “human adenovirus serotype 4 (Ad4), virus particle (from UniProt P49810)”, the Kd [1] was 2480 nM.

B1: Ad12 partner of the row Ad12-sCAR* (other)
chain: SNTPYDPLTLWTTPDPPPNCSLIQELDAKLTLCLTKNGSIVNGIVSLVGVKGNLLNIQSTTTTVGVHLVFDEQGRLITSTPTALVPQASWGYRQGQSVSTNTVTNGLGFMPNVSAYPRPNASEAKSQMVSLTYLQGDTSKPITMKVAFNGITSLNGYSLTFMWSGLSNYINQPFSTPSCSFSYITQE
With B1 the Kd [2] was 15 nM.

B2: Ad5 partner of the row Ad5-sCAR* (other)
chain: GAITVGNKNNDKLTLWTTPAPSPNCRLNAEKDAKLTLVLTKCGSQILATVSVLAVKGSLAPISGTVQSAHLIIRFDENGVLLNNSFLDPEYWNFRNGDLTEGTAYTNAVGFMPNLSAYPKSHGKTAKSNIVSQVYLNGDKTKPVTLTITLNGTQETGDTTPSAYSMSFSWDWSGHNYINEIFATSSYTFSYIAQE
B2 showed a Kd [2] of 7.9 nM.
